Measurements taken from paper PMC8783683, “Plasma cell dependence on histone/protein deacetylase 11 reveals a therapeutic target in multiple myeloma” (JCI Insight, 2021).
Values belong to the molecule of their own block, whether it stands above or below them.

Columns and labels:
[1] = biological target: T1, IFN response factor 4 (IRF4), endogenous (human (endogenous in MM1.S and primary …, UniProt Q15306 1-451)); assay: proximity ligation assay (PLA); conditions: MM1.S cells transfected with OE.HDAC11mut, read off a plot
T1 construct: IRF4, endogenous in human multiple myeloma cells (MM1.S line and primary patient MM cells), detected or precipitated by anti-IRF4; source: endogenous, MM1.S cells (fixed cells and lysate); endogenous, patient-derived primary MM cells
T1 sequence (looked up): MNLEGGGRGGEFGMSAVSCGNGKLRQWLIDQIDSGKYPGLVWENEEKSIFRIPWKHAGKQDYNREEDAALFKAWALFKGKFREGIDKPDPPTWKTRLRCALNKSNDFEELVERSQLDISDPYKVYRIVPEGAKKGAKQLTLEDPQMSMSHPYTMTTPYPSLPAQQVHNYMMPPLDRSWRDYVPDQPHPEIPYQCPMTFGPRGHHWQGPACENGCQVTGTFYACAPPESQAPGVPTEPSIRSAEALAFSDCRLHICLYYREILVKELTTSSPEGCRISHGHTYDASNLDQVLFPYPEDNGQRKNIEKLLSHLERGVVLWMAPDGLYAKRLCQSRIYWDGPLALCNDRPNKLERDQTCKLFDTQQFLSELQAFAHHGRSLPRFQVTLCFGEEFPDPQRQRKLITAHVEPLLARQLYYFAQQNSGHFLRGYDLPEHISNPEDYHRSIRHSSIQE

[2] = biological target: T1, IFN response factor 4 (IRF4), endogenous; assay: proximity ligation; primary MM cells from patient samples, cultured with the patient's serum, untreated or with LPS (5 μg/mL, 24 hours); conditions: partners not purified

response (# Foci Per Cell) ([1]; cytoplasmic foci, parent: est. 17): 18 | response (# Foci Per Cell) ([1]; nuclear foci, parent: est. 105): 13
Molecule: HA-tagged WT HDAC11 (HDAC11^wt.HA) (from UniProt Q96DB2) HDAC11mut

fold increase of nuclear PLA complexes with LPS against untreated cells [2]: 4.5 fold
B1: histone/protein deacetylase 11 (HDAC11), endogenous (enzyme, UniProt Q96DB2 1-347, looked up)
chain: MLHTTQLYQHVPETRWPIVYSPRYNITFMGLEKLHPFDAGKWGKVINFLKEEKLLSDSMLVEAREASEEDLLVVHTRRYLNELKWSFAVATITEIPPVIFLPNFLVQRKVLRPLRTQTGGTIMAGKLAVERGWAINVGGGFHHCSSDRGGGFCAYADITLAIKFLFERVEGISRATIIDLDAHQGNGHERDFMDDKRVYIMDVYNRHIYPGDRFAKQAIRRKVELEWGTEDDEYLDKVERNIKKSLQEHLPDVVVYNAGTDILEGDRLGGLSISPAGIVKRDELVFRMVRGRRVPILMVTSGGYQKRTARIIADSILNLFGLGLIGPESPSVSAQNSDTPLLPPAVP
notes: HDAC11, endogenous in human multiple myeloma cells (MM1.S line and primary patient MM cells), detected by mouse anti-HDAC11 in PLA; source: endogenous, MM1.S cells; endogenous, patient-derived primary MM cells
